{"source": "the RNAGym collection of RNA variant scans (doi:10.1073/pnas.2313332121)", "parents": {"B1": {"name": "TPR 5TU (parent)", "chain": "GGAUCUUCUCGAUCUAACAAAAAAGACAAAUCUGCCACAAAGCUUGAGAGCAUCUUCGGAUGCAGAGGCGGCAGCCUUCGGUGGCGCGAUAGCGCCAACGUUCUCAACUAUGACACGCAAAACGCGUGCUCCGUUGAAUGGAGUUUAUCAUG"}}, "note": "Variants at the floor of the assay were thinned out."}
{"variants_of": "B1", "experiment": "polymerase ribozyme fitness, log enrichment relative to wild type (log ratio); higher = more active; in vitro selection for triplet polymerase activity", "how_it_was_run": "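For each subunit of a heterodimeric triplet polymerase ribozyme, a mutant library was built by PCR and transcribed, then taken through a single in vitro selection round in triplicate. Selection involved annealing to a biotinylated primer, the partner subunit and triplets, incubation frozen at −7 °C, gel excision of extended constructs, capture on streptavidin beads and RT-PCR. Genotypes were retained after Illumina sequencing of inputs and outputs only with ≥10 input reads and ≥1 read in each output. Fitness is defined as the logarithm of a genotype's enrichment relative to wild-type enrichment, using inverse-variance-weighted averages across replicates, with the logarithm taken to base 2.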"}
{"variant": "U45G G70A C87U U144G", "polymerase ribozyme fitness (log ratio)": "≤ -4.2"}
{"variant": "U45A C72A G86U C99U", "polymerase ribozyme fitness (log ratio)": "≤ -4.2"}
{"variant": "U44A G88C", "polymerase ribozyme fitness (log ratio)": "≤ -4.2"}
{"variant": "U45A G58C", "polymerase ribozyme fitness (log ratio)": -2.28}
{"variant": "U45A G58A", "polymerase ribozyme fitness (log ratio)": -1.48}
{"variant": "C43U A66G C105A", "polymerase ribozyme fitness (log ratio)": "≤ -4.2"}
{"variant": "U45A C85U", "polymerase ribozyme fitness (log ratio)": -3.1}
{"variant": "U45A C99A A106U A121U C149G G152A", "polymerase ribozyme fitness (log ratio)": -4.01}
{"variant": "U45G C57A C93A G124A", "polymerase ribozyme fitness (log ratio)": -3.64}
{"variant": "C43A A66G U77A A97G U146A", "polymerase ribozyme fitness (log ratio)": "≤ -4.2"}
{"variant": "U44G A47C A66G G67A C87A C96G U145A", "polymerase ribozyme fitness (log ratio)": "≤ -4.2"}
{"variant": "U44A U53A G86U C132U U135G", "polymerase ribozyme fitness (log ratio)": "≤ -4.2"}
{"variant": "U44A G80A A121U U144A", "polymerase ribozyme fitness (log ratio)": "≤ -4.2"}
{"variant": "U45G A47U A49C U61A C76A C87A U146G", "polymerase ribozyme fitness (log ratio)": "≤ -4.2"}
{"variant": "U44A G50C U53A C87A A106G A107U", "polymerase ribozyme fitness (log ratio)": "≤ -4.2"}
{"variant": "U44A C85A G92A A107U G128U", "polymerase ribozyme fitness (log ratio)": "≤ -4.2"}
{"variant": "U45G C54A C87G A121U C123G", "polymerase ribozyme fitness (log ratio)": "≤ -4.2"}
{"variant": "C43U A106G", "polymerase ribozyme fitness (log ratio)": "≤ -4.2"}
{"variant": "U45G C54U A110G", "polymerase ribozyme fitness (log ratio)": "≤ -4.2"}
{"variant": "C43U C57G G70A A89G C93U", "polymerase ribozyme fitness (log ratio)": "≤ -4.2"}
{"variant": "U45G G48U A60U C72A G80C C96A U102G", "polymerase ribozyme fitness (log ratio)": "≤ -4.2"}
{"variant": "U45C U56A A91G U111A", "polymerase ribozyme fitness (log ratio)": "≤ -4.2"}
{"variant": "U45A U77A C87U U90G G92C G126A A138G", "polymerase ribozyme fitness (log ratio)": "≤ -4.2"}
{"variant": "U45A G84A", "polymerase ribozyme fitness (log ratio)": -3.44}
{"variant": "G42U A98U U102G A120U C132G U135A A147C", "polymerase ribozyme fitness (log ratio)": "≤ -4.2"}
{"variant": "U45A C96A", "polymerase ribozyme fitness (log ratio)": -2.56}
{"variant": "U45A C96U", "polymerase ribozyme fitness (log ratio)": -2.86}
{"variant": "U45A U77G G83C U146A", "polymerase ribozyme fitness (log ratio)": "≤ -4.2"}
{"variant": "U44A G58A C93U C96G A97G A98U A119G U144C A150U", "polymerase ribozyme fitness (log ratio)": "≤ -4.2"}
{"variant": "U44A C72U A73G G86U A138C", "polymerase ribozyme fitness (log ratio)": "≤ -4.2"}
{"variant": "U44A G50U G59A C85A C99G G126U", "polymerase ribozyme fitness (log ratio)": "≤ -4.2"}
{"variant": "U44G C75G G88C", "polymerase ribozyme fitness (log ratio)": "≤ -4.2"}
{"variant": "U45A C63U A121C", "polymerase ribozyme fitness (log ratio)": -3.18}
{"variant": "C43U A73G C79A U134A", "polymerase ribozyme fitness (log ratio)": "≤ -4.2"}
{"variant": "C43U U61G A64C U77G C85U A110U C116G", "polymerase ribozyme fitness (log ratio)": -4.02}
{"variant": "U45G A91C U101G A147C", "polymerase ribozyme fitness (log ratio)": "≤ -4.2"}
{"variant": "U44A U55A C63G C85U C87G G92U", "polymerase ribozyme fitness (log ratio)": "≤ -4.2"}
{"variant": "U44G G65A A66C A91G", "polymerase ribozyme fitness (log ratio)": "≤ -4.2"}
{"variant": "U45G G59A", "polymerase ribozyme fitness (log ratio)": -0.523}
{"variant": "C43A U53G U56G A97U A137G", "polymerase ribozyme fitness (log ratio)": "≤ -4.2"}
{"variant": "C43U G81C G88A G133C", "polymerase ribozyme fitness (log ratio)": "≤ -4.2"}
{"variant": "U45A C54U U61A C85U", "polymerase ribozyme fitness (log ratio)": "≤ -4.2"}
{"variant": "U44G U45G C54U C87A", "polymerase ribozyme fitness (log ratio)": "≤ -4.2"}
{"variant": "C43A G48U A60G G83C C87U G126U A138C", "polymerase ribozyme fitness (log ratio)": "≤ -4.2"}
{"variant": "U44A G48C C87A A115U C125A", "polymerase ribozyme fitness (log ratio)": "≤ -4.2"}
{"variant": "U45A G117U", "polymerase ribozyme fitness (log ratio)": -3.08}
{"variant": "G42U G71U G88U G92C A97C A122G U134C", "polymerase ribozyme fitness (log ratio)": "≤ -4.2"}
{"variant": "U44G G92U", "polymerase ribozyme fitness (log ratio)": "≤ -4.2"}
{"variant": "U44G G46C A60C U61A C95U", "polymerase ribozyme fitness (log ratio)": "≤ -4.2"}
{"variant": "U45A C85A C87G C114A A137C", "polymerase ribozyme fitness (log ratio)": "≤ -4.2"}
{"variant": "C43U A49C C96A A107C A113U", "polymerase ribozyme fitness (log ratio)": "≤ -4.2"}
{"variant": "U44A A52C C54A G92A G141C", "polymerase ribozyme fitness (log ratio)": "≤ -4.2"}
{"variant": "C43U A52C C57U G83A A89C", "polymerase ribozyme fitness (log ratio)": "≤ -4.2"}
{"variant": "C43U U55G A60U U109A U145C U146C", "polymerase ribozyme fitness (log ratio)": "≤ -4.2"}
{"variant": "C43U G48A C57G C85U", "polymerase ribozyme fitness (log ratio)": "≤ -4.2"}
{"variant": "U45A A47C", "polymerase ribozyme fitness (log ratio)": -3.93}
{"variant": "U45A A142G", "polymerase ribozyme fitness (log ratio)": -2.94}
{"variant": "U44G U134C", "polymerase ribozyme fitness (log ratio)": -4.1}
{"variant": "U45A C99A", "polymerase ribozyme fitness (log ratio)": "≤ -4.2"}
{"variant": "U45A C57A C96U G124A", "polymerase ribozyme fitness (log ratio)": -3.11}
{"variant": "U45G C114U", "polymerase ribozyme fitness (log ratio)": -2.91}
{"variant": "U45A A60G G94A C95G U144C U151G", "polymerase ribozyme fitness (log ratio)": "≤ -4.2"}
{"variant": "U45G A115G", "polymerase ribozyme fitness (log ratio)": -1.98}
{"variant": "U44G A52C G92U G141A", "polymerase ribozyme fitness (log ratio)": "≤ -4.2"}
{"variant": "C43G C54A U55A A73G G74C G124C", "polymerase ribozyme fitness (log ratio)": "≤ -4.2"}
{"variant": "C43U C96G", "polymerase ribozyme fitness (log ratio)": "≤ -4.2"}
{"variant": "C43A U45G U90A U102G G140A A147C", "polymerase ribozyme fitness (log ratio)": "≤ -4.2"}
{"variant": "U44G C54G C76G C85A", "polymerase ribozyme fitness (log ratio)": "≤ -4.2"}
{"variant": "C43U C85A C87U G94C", "polymerase ribozyme fitness (log ratio)": "≤ -4.2"}
{"variant": "U45A A52C", "polymerase ribozyme fitness (log ratio)": "≤ -4.2"}
{"variant": "C43G C87U U109G", "polymerase ribozyme fitness (log ratio)": "≤ -4.2"}
{"variant": "C43G G84A C95A A106U C118G G143U", "polymerase ribozyme fitness (log ratio)": "≤ -4.2"}
{"variant": "U44A C76A U82G G100A C103G A137G", "polymerase ribozyme fitness (log ratio)": "≤ -4.2"}
{"variant": "U45A A91C C95G A142U", "polymerase ribozyme fitness (log ratio)": "≤ -4.2"}
{"variant": "U44G G48U G86A G100C C105A G126A U134C", "polymerase ribozyme fitness (log ratio)": "≤ -4.2"}
{"variant": "U45A U55A C93U", "polymerase ribozyme fitness (log ratio)": -3.88}
{"variant": "U45A G140U", "polymerase ribozyme fitness (log ratio)": -4.19}
{"variant": "C43U C51A C85U A107U U135C", "polymerase ribozyme fitness (log ratio)": "≤ -4.2"}
{"variant": "C43A C57G G84A", "polymerase ribozyme fitness (log ratio)": "≤ -4.2"}
{"variant": "U44A U53A C79G C85G A119G U135G", "polymerase ribozyme fitness (log ratio)": "≤ -4.2"}
{"variant": "C43A C57G U78G C96A A113G", "polymerase ribozyme fitness (log ratio)": "≤ -4.2"}
{"variant": "U45A G65C A73G G84A A142G", "polymerase ribozyme fitness (log ratio)": "≤ -4.2"}
{"variant": "U44A C75U C76G U77G G92U A115U G140A G152C", "polymerase ribozyme fitness (log ratio)": "≤ -4.2"}
